Here are results for 4 molecules from US20180230200A1 (CITY OF HOPE, published 2018).

Usually EC50 stands for the concentration at which the effect is half-maximal. A higher EC50 goes with a need for much substance.

For assay [1], the target named is T1, UL128 expressed from MVA in BHK-21 cells (human cytomegalovirus, UniProt P16837 28-171).
T1 construct: whole, on cells
T1 sequence: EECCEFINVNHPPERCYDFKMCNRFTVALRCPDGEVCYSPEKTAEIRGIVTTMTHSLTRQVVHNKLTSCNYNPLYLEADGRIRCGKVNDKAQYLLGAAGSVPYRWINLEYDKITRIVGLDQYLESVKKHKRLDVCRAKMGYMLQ
Put plainly: intracellular FC, MVA-infected BHK-21.

The target in assay [2] is T2, UL130/UL131A co-expressed from MVA in BHK-21 cells (human cytomegalovirus, UniProt P16772 1-214; F5HET4 19-129).
T2 construct: whole, on cells
Put plainly: intracellular FC, MVA-infected BHK-21.

The target in assay [3] is T3, UL128/UL130 co-expressed from MVA in BHK-21 cells (human cytomegalovirus, UniProt P16837 28-171; P16772 1-214).
T3 construct: whole, on cells
Put plainly: intracellular FC, MVA-infected BHK-21.

Assay [4] addresses T4, UL131A expressed from MVA in BHK-21 cells (human cytomegalovirus, UniProt F5HET4 19-129).
T4 construct: whole, on cells
The assay can be described thus: intracellular FC, MVA-infected BHK-21.

For assay [5], the target named is T5, UL128/UL130/UL131A co-expressed from MVA in BHK-21 cells (human cytomegalovirus, UniProt P16837 28-171; P16772 1-214; F5HET4 19-129).
T5 construct: whole, on cells
Put plainly: intracellular FC, MVA-infected BHK-21.

Assay [6] has as its target T6, UL128/UL131A co-expressed from MVA in BHK-21 cells (human cytomegalovirus, UniProt P16837 28-171; F5HET4 19-129).
T6 construct: whole, on cells
The assay can be described thus: intracellular FC, MVA-infected BHK-21.

For assay [7], the target named is T7, UL130 expressed from MVA in BHK-21 cells (human cytomegalovirus, UniProt P16772 1-214).
T7 construct: whole, on cells
The assay can be described thus: intracellular FC, MVA-infected BHK-21.

Assay [8] addresses T8, gH/gL/UL128/UL130/UL131A pentamer complex expressed from MVA-PC in BHK-21 cells (human cytomegalovirus, UniProt P12824 24-743; P16832 31-278; P16837 28-171; P16772 1-214; F5HET4 19-129).
T8 construct: whole, on cells
The assay can be described thus: FC competition, MVA-PC BHK-21; unlabelled row Ab; competitor: biotinylated AP86.

Assay [9] deals with T8, gH/gL/UL128/UL130/UL131A pentamer …. Put plainly: FC, biotinylated NAb titrated on MVA-PC-infected BHK-21 (cell surface PC).
The target is the same in assay [10]. Put plainly: FC competition, MVA-PC BHK-21; unlabelled row Ab; competitor: biotinylated 21E9.
For assay [11] the target is unchanged. Put plainly: FC competition, MVA-PC BHK-21; unlabelled row Ab; competitor: biotinylated 2-80.
Assay [12] shares this target. Put plainly: FC competition, MVA-PC BHK-21; unlabelled row Ab; competitor: biotinylated 62-11.
For the next assay, the target named is gH of HCMV strain TB40/E (human cytomegalovirus strain TB40/E). Put plainly: cell-based or functional assay.
In a further assay the target is gH of HCMV strain TR (human cytomegalovirus strain TR). Put plainly: cell-based or functional assay.
Assay [13] concerns the target T8, gH/gL/UL128/UL130/UL131A pentamer …. Put plainly: FC competition, MVA-PC BHK-21; unlabelled row Ab; competitor: biotinylated 18F10.

B1: 2-80 (antibody, V domains shown)
VH: QIQLVQSGPELKKPGETVKISCKASGYTFTNFGMNWVKQAPGKGLKWMGWINTYTGEPTYADDFKGRFAFSLETSASTASLQINNLKNEDTATYFCARRGDGLYSMDYWGQGTSVTVSS
VL: DIVLTQSPASLAVSLGQRATISCRASESIDSYGNSFMYWYQQKPGQPPKLLIYRASNLESGIPARFSGSGSRTDFTLTINPVEADDVATYYCQQSNEDPLTFGAGTKLELK
notes: also called NAb 2-80
B1: the binding result in assay [1], in assay [2], in assay [3], in assay [4], in assay [5] and in assay [6] was “no binding” each time. The binding result in [7] is “no binding”. Moreover, the “Binding Inhibition (%)” value was 0% in assay [8]; 100% in assay [10]; 100% in assay [11]; 43% in [12]; 0% in [13]. In addition, in assay [9], the EC50 was 2.8 nM. Further, the “IC50, inhibition of TB40/E cell-to-cell spread in ARPE-19” value with gH of HCMV strain TB40/E was greater than 400 µg/mL. Moreover, the “IC50, neutralization of TB40/E infection of ARPE-19” value in the assay with gH of HCMV strain TB40/E amounted to 1.43 µg/mL. For the same molecule, the “IC50, neutralization of TB40/E infection of CTB” value (“IC50, neutralization … of CTB” below) in the assay with gH of HCMV strain TB40/E is greater than 50 µg/mL. For the same molecule, in the assay with gH of HCMV strain TB40/E, the “IC50, neutralization of TB40/E infection of HUVEC” value stood at 1.41 µg/mL. Besides, the “IC50, neutralization of TB40/E infection of MRC-5” value in the assay with gH of HCMV strain TB40/E came to 1.6 µg/mL. For the same molecule, in the assay with gH of HCMV strain TR, the “IC50, inhibition of TR cell-to-cell spread in ARPE-19” value came out at 398 µg/mL. The “IC50, neutralization of TR infection of ARPE-19” value in the assay with gH of HCMV strain TR is 2.12 µg/mL. Moreover, the “IC50, neutralization of TR infection of HUVEC” value (from here on “IC50 … of TR infection of HUVEC”) in the assay with gH of HCMV strain TR stood at 2.54 µg/mL. The “IC50, neutralization of TR infection of MRC-5” value (“IC50 … of TR infection of MRC-5” for short) in the assay with gH of HCMV strain TR stood at 1.72 µg/mL.

B2: 21E9 (antibody, V domains shown)
VH: QIQLVQSGPELKKPGETVKISCKASGYTFTIYGMNWVKQAPGKGLKWMGWINTYTGEPTYADDFRGRFAFSLETSASTAYLQINNLKNEDTATYFCARKGYYGSSGYFDYWGQGTTLTVSS
VL: SIVMTQTPKFLLVSAGDRVTITCKASQSVSNDVSWYQQKPGQSPKLLIYYASNRYTGVPDRFTGSGYGTDFTFTISTVQAEDLAVYFCQQDYSSPWTFGGGTKLEIK
notes: also called NAb 21E9
With B2, the binding result in assay [1], in assay [2], in assay [3], in assay [4], in assay [5] and in [6] was “no binding” throughout. The binding result in [7] was “no binding”. The “Binding Inhibition (%)” value was found to be 0% in assay [8]; 100% in assay [10]; 100% in assay [11]; 32% in assay [12]; 0% in assay [13]. The molecule also registered an EC50 in assay [9] of 18 nM. The “IC50, inhibition of TB40/E cell-to-cell spread in ARPE-19” value with gH of HCMV strain TB40/E turned out to be 157 µg/mL. In addition, in the assay with gH of HCMV strain TB40/E, the “IC50, neutralization of TB40/E infection of ARPE-19” value turned out to be 1.41 µg/mL. Besides, the “IC50, neutralization … of CTB” value in the assay with gH of HCMV strain TB40/E was found to be 42.4 µg/mL. Also, the “IC50, neutralization of TB40/E infection of HUVEC” value with gH of HCMV strain TB40/E is 2.37 µg/mL. In the assay with gH of HCMV strain TB40/E, the “IC50, neutralization of TB40/E infection of MRC-5” value came to 5.78 µg/mL. The “IC50, inhibition of TR cell-to-cell spread in ARPE-19” value with gH of HCMV strain TR amounted to 262 µg/mL. In the assay with gH of HCMV strain TR, the “IC50, neutralization of TR infection of ARPE-19” value is 0.926 µg/mL. The “IC50 … of TR infection of HUVEC” value with gH of HCMV strain TR stood at 2.92 µg/mL. Moreover, the “IC50 … of TR infection of MRC-5” value with gH of HCMV strain TR was found to be 4.14 µg/mL.

B3: 62-11 (antibody, V domains shown)
VH: QVQLQQPGAELVRPGASVKLSCKASGYTFTSYWMNWVKQRPGQGLEWIGMIDPSDSETHYNQMFKDKATLTVDKSSSTAYMQLSSLTSEDSAVYYCSNGYSSFAYWGQGTLVTVSV
VL: DVQMTQTTSSLSASLGDRVTISCSASQGISNYLNWYQQKPDGTVKLLIYDTSSLHSGVPSRFSGSGSGTDYSLTISNLEPEDIATYYCQQYSKLPYTFGGGTKLEIK
notes: also called NAb 62-11
On to B3, for which the binding result in assay [1], in assay [2], in assay [3], in [4], in [5] and in assay [6] was “no binding” in each case. For the same molecule, the binding result in [7] was “no binding”. In addition, the “Binding Inhibition (%)” value in assay [8] stood at 0%; in assay [10], 46%; in [11] it was 54%; in [12], 100%; in [13], 0%. Besides, a half-maximal response in assay [9] (EC50) required 1.7 nM. Besides, the “IC50, inhibition of TB40/E cell-to-cell spread in ARPE-19” value in the assay with gH of HCMV strain TB40/E turned out to be 87 µg/mL. Also, in the assay with gH of HCMV strain TB40/E, the “IC50, neutralization of TB40/E infection of ARPE-19” value came out at 0.185 µg/mL. Moreover, the “IC50, neutralization … of CTB” value with gH of HCMV strain TB40/E was 2.76 µg/mL. Moreover, in the assay with gH of HCMV strain TB40/E, the “IC50, neutralization of TB40/E infection of HUVEC” value was determined as 0.102 µg/mL. Further, the “IC50, neutralization of TB40/E infection of MRC-5” value in the assay with gH of HCMV strain TB40/E came to 0.182 µg/mL. Also, the “IC50, inhibition of TR cell-to-cell spread in ARPE-19” value in the assay with gH of HCMV strain TR came out at 395 µg/mL. Further, the “IC50, neutralization of TR infection of ARPE-19” value in the assay with gH of HCMV strain TR worked out at 0.641 µg/mL. In the assay with gH of HCMV strain TR, the “IC50 … of TR infection of HUVEC” value came to 0.83 µg/mL. Further, the “IC50 … of TR infection of MRC-5” value with gH of HCMV strain TR was 3.35 µg/mL.

B4: 62-100 (antibody, V domains shown)
VH: QVQLQQPGAELVRPGASVKLSCKASGYTFTSYWMNWVKQRPGQGLEWIGMIDPSDSETHYNQMFKDKATLTVDKSSSTAYMQLSSLTSEDSAVYYCSNGYSSFAYWGQGTLVTVSV
VL: DIVLTQSPATLSVTPGDSVSLSCRASQSISNNLHWYQQKSHESPRLLIKYASQSISGIPSRFSGSGSGTDFTLSINSVETEDFGKYVCQQSNSWPLTFGSGTKLEIK
notes: also called NAb 62-100
Consider B4, for which the binding result in [1], in assay [2], in assay [3], in [4], in [5] and in assay [6] was “no binding” each time. Further, in assay [7], the binding result was “no binding”. In addition, the “Binding Inhibition (%)” value amounted to 0% in assay [8]; 51% in [10]; 57% in [11]; 100% in [12]; 0% in assay [13]. The EC50 in assay [9] was found to be 3.3 nM. In the assay with gH of HCMV strain TB40/E, the “IC50, inhibition of TB40/E cell-to-cell spread in ARPE-19” value is 103 µg/mL. In the assay with gH of HCMV strain TB40/E, the “IC50, neutralization of TB40/E infection of ARPE-19” value was found to be 0.27 µg/mL. In addition, the “IC50, neutralization … of CTB” value with gH of HCMV strain TB40/E stood at 3.62 µg/mL. Further, in the assay with gH of HCMV strain TB40/E, the “IC50, neutralization of TB40/E infection of HUVEC” value amounted to 0.156 µg/mL. In the assay with gH of HCMV strain TB40/E, the “IC50, neutralization of TB40/E infection of MRC-5” value came out at 0.293 µg/mL. Besides, the “IC50, inhibition of TR cell-to-cell spread in ARPE-19” value with gH of HCMV strain TR is 337 µg/mL. The “IC50, neutralization of TR infection of ARPE-19” value in the assay with gH of HCMV strain TR is 2.13 µg/mL. Further, the “IC50 … of TR infection of HUVEC” value with gH of HCMV strain TR was 1.03 µg/mL. Besides, the “IC50 … of TR infection of MRC-5” value with gH of HCMV strain TR stood at 1.98 µg/mL.
